In article PMC1933414, “Role of RGM coreceptors in bone morphogenetic protein signaling” (Journal of Molecular Signaling, 2007):
One block for each molecule: values may come before it.

What was measured:
Test in all cases: SPR; BIAcore 3000; BMP2 (350 RU) or BMP12 (1000 RU) amine-coupled on CM5 chips; soluble RGM injected at 0.1-100 nM, 30 uL/min, 500 s, 25°C; HBS-EP pH 7.4 (0.15 M NaCl); global analysis with BIAevaluation 3.2; double referencing
[1] = target: Human BMP12 (bone morphogenetic protein 12) (human) (UniProt Q7Z4P5)
[2] = target: Human BMP2 (bone morphogenetic protein 2) (human) (UniProt P12643)
[3] = target: T1, Human BMP12 (bone morphogenetic protein 12) (human, UniProt Q7Z4P5 322-450); details: both partners purified
T1 construct: bone morphogenetic protein 12 (GDF7), human; the dimer peak from size exclusion was used; also called recombinant human BMP12; source: E. coli, purified (SP-Sepharose cation exchange, size exclusion; dimer peak)
T1 sequence (looked up): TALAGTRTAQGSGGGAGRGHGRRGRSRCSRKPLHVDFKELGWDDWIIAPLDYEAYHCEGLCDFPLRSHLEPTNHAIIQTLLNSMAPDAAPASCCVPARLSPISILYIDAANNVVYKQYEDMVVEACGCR

[4] = target: T2, Human BMP2 (bone morphogenetic protein 2) (human, UniProt P12643 283-396); details: both partners purified
T2 construct: bone morphogenetic protein 2, human; purified recombinant protein; also called recombinant human BMP2; source: produced and purified as previously described [37]
T2 sequence (P12643 283-396): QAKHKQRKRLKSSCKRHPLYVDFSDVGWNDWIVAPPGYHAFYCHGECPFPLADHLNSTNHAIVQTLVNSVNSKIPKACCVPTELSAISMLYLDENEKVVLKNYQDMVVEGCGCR

Sequence of Human BMP2 (bone morphogenetic protein 2) (human) (P12643 283-396): as above

Kd [1]: 1.22 nM
koff [1]: 9.22e-05 s⁻¹
kon [1]: 75600 M⁻¹ s⁻¹
Kd [2]: 4.22 nM
koff [2]: 0.000363 s⁻¹
kon [2]: 86100 M⁻¹ s⁻¹
Molecule: RGMc-Fc (ectodomain of RGMc fused to the Fc portion of human IgG) (from UniProt Q6ZVN8 36-400) (Fc fusion)

Kd [1]: 2.06 nM
koff [1]: 0.000118 s⁻¹
kon [1]: 56900 M⁻¹ s⁻¹
Kd [2]: 5.43 nM
koff [2]: 0.000256 s⁻¹
kon [2]: 47200 M⁻¹ s⁻¹
Molecule: RGMb-Fc (ectodomain of RGMb fused to the Fc portion of human IgG) (from UniProt Q6NW40 46-413) (Fc fusion)

Kd [3]: 1.41 nM
koff [3]: 0.000179 s⁻¹
kon [3]: 127000 M⁻¹ s⁻¹
Kd [4]: 2.46 nM
koff [4]: 0.000364 s⁻¹
kon [4]: 148000 M⁻¹ s⁻¹
B1: RGMa-Fc (ectodomain of RGMa fused to the Fc portion of human IgG) (Fc fusion)
chain: CKILKCNSEFWSATSGSHAPASDDTPEFCAALRSYALCTRRTARTCRGDLAYHSAVHGIEDLMSQHNCSKDGPTSQPRLRTLPPAGDSQERSDSPEICHYEKSFHKHSATPNYTHCGLFGDPHLRTFTDRFQTCKVQGAWPLIDNNYLNVQVTNTPVLPGSAATATSKLTIIFKNFQECVDQKVYQAEMDELPAAFVDGSKNGGDKHGANSLKITEKVSGQHVEIQAKYIGTTIVVRQVGRYLTFAVRMPEEVVNAVEDWDSQGLYLCLRGCPLNQQIDFQAFHTNAEGTGARRLAAASPAPTAPETFPYETAVAKCKEKLPVEDLYYQACVFDLLTTGDVNFTLAAYYALEDVKMLHSNKDKLHLYERTRDLPGRA
